Source: patent US20260258115A1 (MAPP BIOPHARMACEUTICAL, published 2026)

B1: ADI-41644 (antibody, V domains shown)
VH: QVQLQQWGPGLVKPSETLSLSCAVSGGSLRGHFWSWIRQPPGKGLEWIGEINHGGRTNFNPSLKSRLTISEDSSKNQFSLKLSSVTAADTAVYYCARRWGYDSSGYYFFDYWGQGTLVTVSS
VL: EIQMTQSPATLSVSPGERATLSCRASQTLGFNLAWYQQKPGQSPRLLIYGASTRATGIPARFSGSGAGTEFTLTISSLQSEDFAVYFCQQYSNYYTFGQGTKVEIK
notes: also called Ab 887; Antibody Number 887
B2: ADI-41605 (antibody, V domains shown)
VH: QVQLVESGPGLVKPSQTLSLTCSVSGGSISSDDHYWSWIRQHPGKGLEWIGYIYYSGYTNYNPSLKSRVTISVDTSKNQFSLRLSSVTAADTAVYYCARETDITIFGVVPVGYFDYWGQGTLVTVSS
VL: DIQVTQSPDSLAVSLGERATINCKSSQSILSSTNNKNFLAWYQQKPGQPPKLLLHWASTREFGVPDRFSGSGSGTEFTLTISSLQAEDVAVYYCQQYYTTPYTFGQGTKVEIK
notes: also called Ab 879; Antibody Number 879
B3: ADI-41602 (antibody, V domains shown)
VH: EVQLQESGPGLVKPSETLSLTCTVSGGSLSGYYWSWIRQPPGKGLEWIGYIYHSGSTNYNPSLESRVTISVDTSKNQFSLKVNAVTAADTAVYYCAKVERLLRFDPWGQGTLVTVSS
VL: QSVLIQPASVSGSPGQSITISCIGSSSDVGGYNYVSWYQHYPGKAPKLMIYDVSNRPSGVSNRFSGSKSGNTASLTISGLQAEDEADYYCSSYTSSTSYVFGTGTKVTVL
notes: also called Ab 876; Antibody Number 876
B4: ADI-41662 (antibody, V domains shown)
VH: QVQLVQSGAEVKKAGESLKISCKGPRHSFTSYWIGWVRQMPGKGLEWMASIYPGDSDSRYSPSFEGQVTISADKSIDTAFLQWSSLKASDTAMYFCARYVGAVPGGNWYFDLWGRGTLVTVSS
VL: SYELIQLPSVSVSPGQTARITCSGDALPKKYAYWYQQKSGQAPVLVIYDDNKRPSGIPARFSGSSSGTMATLTISGAQVEDEGDYYCYSTDSTGDHRGVFGGGTKLTVL
B5: ADI-41604 (antibody, V domains shown)
VH: QVTLKESGAEVKKPGASVKVSCKASGYTFTGYYMHWVRQAPGQGLEWMGRINPNSGGTNYAQKFQGRVTMTRDTSISTAYMELSRLRSDDTAVYYCAREASRFGGFDYWGQGTLVTVSS
VL: DIVLTQSPSSLSASVGDRVTITCQASQDISNYLNWYQQKPGKAPKLLIYDASNLETGVPSRFSGSGSGTDFTFTISSLQPEDIATYYCQQYDNLLGYTFGQGTKVEIK
B6: ADI-41664 (antibody, V domains shown)
VH: EVQLVQSGDEVKKPGASVKVSCKASGYPFSTYGISWVRQAPGQGLEWMGWIGVYTGGTNYAQKFQGRVTLTTDTSTSTAYMELRSLRSDDTAVYYCARGTGSYMTATYFDYWGQGTLVTVSS
VL: SYELTQPPSVSVAPGQTARITCGGNNIGSKAVHWYQQKPGQAPVLVVYDDYDRPSGIPERFSGSNSGNTATLTISRVEAGDEADYYCQVWDSSSDYVFGTGTKLTVL
notes: also called Ab 890; Antibody Number 890
B7: ADI-41608 (antibody, V domains shown)
VH: QVQLVQSGDEVKKPGESLKISCKGSEHTFTNYWIAWVRQMPGKGLECMGVIWPDDSDTKYSPSFQGQVTISADKSINTAYLHLSSLRASDTAMYYCATSKFRTGFDFWGQGTLVTVSS
VL: NFMLTQPHSVSESPGKTVIISCTRSSGNIASNYVQWYQQRPGSSPTTVVYEDNQRPSGVPDRFSGSIDSSSNSASLTISGLKTEDEADYYCQSYDSSNPWVFGGGTKLTVL
B8: ADI-41600 (antibody, V domains shown)
VH: EVQLLESGGNMVQPGKSLRLSCAASGFTFSNYGMHWVRQAPGKGLEWVAVISKDGNNEHYADSVRARFTVSRDNSKNTLFLQMNSLRPEDTAVYYCAIGGLSGSYFGEYFQHWGRGTLVTVSS
VL: DIQMTQSPSSMSASLGDRVTITCRASQGISTWLAWYQQKPGEAPKLLIYAAFGLQSGVPSRFSGSGSGTDFTLTINNLQPEDFATYYCQQAISFPFTFGGGTKVEIK
notes: also called Ab 874; Antibody Number 874
B9: ADI-41607 (antibody, V domains shown)
VH: EVQLVESGPGLVKPSQTLSLTCTVSGGSINIGGYYWSWIRQHPEKGLEWIGYIYYSGTTYYNPSLESRVTISIDTSKNQFSLNLSSVTAADTAVYYCASVDQIGATRFDYWGQGTLVTVSS
VL: QPVLTQPRSVSGSPGQSVTLSCTGTSSDVGTYNYVSWYQHHPGKAPKLIIYDVNKRPSGVPDRFSGSKSGNTASLTISGLQAEDEADYYCCSYAGSYTLNYVFGTGTKLTVL
B10: ADI-41603 (antibody, V domains shown)
VH: EVQLVESGGGLVKPGRSLRLSCTTSGFTFGDYAMSWFRQAPGKGLEWVGFIRSKPYGGATAYAASVRGRFTISNDDSKSIAYLQMESLKIEDTAVYYCARDYDDFFFYDYWGQGTLVTVSS
VL: DIRMTQSPATLSVSPGERATLSCRASENIYSNLAWYQQKPGQAPRLLIYGASTRATGLPARFSGSGSGTEFTLTISSLQSEDFAVYYCQQYNNWPAFGGGTKVEIK
notes: also called Ab 877; Antibody Number 877
B11: ADI-41626 (antibody, V domains shown)
VH: EVQLQESGPGLVKPSGTLSLTCAVAGGFISSGNWWSWIRQPPGKGLEWIGEVYHSGRTSYNPSLKSRVTISVDNSKNQFSLKMSSVTAADTAVYYCARVESYSSSGYYIAYFDNWGQGNLVTVSS
VL: DIVLTQSPSSLSASVGDRVTITCRASQSISRYLSWYQQKPGKAPKLLIYAAFSLQTGVPSRFSGSGSGTDFTLTISSFQTEDSATYYCQQSYSAPVTFGGGTKVEIK
B12: ADI-41606 (antibody, V domains shown)
VH: EVQLLESGPGLVKPSETLSLTCTVSGGSVSSGGYYYTWIRQPPGKGLEWIGYAFYSGDTNYNPSLKSRVTISVDTSKNQFSLKLTSVTAADTAVYYCASTYTFGASGFDFWGQGTLVTVSS
VL: DIVMTQSPSFMSASVGDRVTITCRASQGISNWLLWYQQKPGKAPKLLIYAASSLQSGVPSRFSGSRSGTDFTLTISSLQPEDFAIYYCQQANSFPLTFGQGTRLEIK
notes: also called Ab 880; Antibody Number 880
B13: ADI-41660 (antibody, V domains shown)
VH: EVQLVQSGAEVKKPGSSVKVSCKASGGTFSRNAISWVRQAPGQGLEWMGGIIPIFGAANYPQKFQGRVTITADKSTSTAYMELSSLRSEDTALYYCARTMGEMTTTPVSIYYYGMDVWGQGTTVTVSS
VL: QSVLTQPPSVSAAPGQKVTISCSGSSSNIGINYVSWYQQLPGTAPKLLIYDNNKRPSGIPDRFSGSKSGTSATLGITGLQTGDEADYYCGTWDSSLSAGYVFGSGTKLTVL
B14: ADI-41611 (antibody, V domains shown)
VH: EVQLVESGGGLVKPGGSLRLSCAASGFTFSDYSMNWVRQAPGKGLEWVSSTSSGSTYIYYADSVKGRFTISRDNGKNSLYLQMNSLRAEDTAVYYCARAFRLGYDALDIWGQGTMVTVSS
VL: DIRMTQSPSSLSASVGDRVTIICRASQSISNYLNWYQQKPGKAPKLLIYVASNLQSGVPSRFSGSGSGTDFTLTISSLQPEDFATYYCQQTYSPPPTFGGGTKLEIK
notes: also called Ab 885; Antibody Number 885
B15: ADI-14598 (antibody, V domains shown)
VH: QVQLVQSGAEVKKPGSSVKVSCKASGGTFSSYAIYWVRQAPGQGLECMGGIIPIFGSANYAQKFQGRVTITADESTSTAYMELSSLRSEDTAVYYCATDSLKTTYYYGSSGYFRDHVWGQGTTVTVSS
VL: ETTLTQSPSSLSASVGDRVTITCRASQGISNYLAWYQQKPGKVPKLLIFAASTLQSGVPSRFSGSGSGTDFTLTISSLQPEDVATYYCQNFNSVLSFTFGPGTKVDIK
B16: ADI-20997 (antibody, V domains shown)
VH: EVQLVESGGGVVQPGRSLRLSCAASGFPFNSYGMHWVRQAPGKGLEWLAVIYFDESTAYYADSVKGRFTISRDNSKSTLYLQMNSLRAADTAIYYCTTTVMIPYGGVFWGQGTLVTVSS
VL: EIVMTQSPGTLSLSPGDRATLSCRASQSVGSTHFAWYQQKPGQAPRLLIYAASIRATGIPDRFSGGGSGTDFTLTISRLAPEDFAVYYCQQYGSTPITFGQGTRLEIK
B17: ADI-21056 (antibody, V domains shown)
VH: EVQLLESGGGLVKPGGSLKLSCAASGFTLRSYYMHWVRQAPGRGLEWVSSISASSSYINYVDAVKGRFTVSRDNAKNSLFLQMNSLRAEDTAVYYCAREGGAMTNFGVVIDIWGQGTMVTVSS
VL: SYVLTQPPSVSGAPGQRVTISCTGSSSNIGAGYDVHWYQQLPGTAPKLLIYTNTNRPSGVPDRFSGSKSGTSASLAITGLQSDDEADYYCQSYDSSLSGPVVFGGGTKLTVL
B18: ADI-14605 (antibody, V domains shown)
VH: EVQLLESGPALVKPTQTLTLTCTFSGFSLTTSGMCVSWIRQPPGKALEWLARIDWDDDQYFSTSLRTRLSISKDTSKNQVVLTMTNMDPVDTATYYCARSALNIAARGFDIWGQGTTVTVSS
VL: QPGLTQPPSVSVSPGQTARITCSGDVLPKHFSYWYQQKPGQAPVLVIHRDSERPSGIPERFSGSSSGTTVTLTISGVQAEDEADYYCQFSDITNTVFGGGTKLTVL

target: RSV F on RSV-A2 virus (Respiratory syncytial virus, RSV-A2, UniProt P03420 26-574); experiment: cell-based or functional assay

| Binder | Neutralization IC50 (RSV subtype A) [µg/mL] |
| --- | --- |
| B1 | > 25 |
| B2 | > 25 |
| B3 | > 25 |
| B4 | > 25 |
| B5 | > 25 |
| B6 | > 25 |
| B7 | > 25 |
| B8 | > 25 |
| B9 | > 25 |
| B10 | > 25 |
| B11 | > 25 |
| B12 | > 25 |
| B13 | > 25 |
| B14 | > 25 |

target: RSV prefusion F (preF), DS-Cav1 (Respiratory syncytial virus, UniProt P03420 26-513); experiment: BLI, IgG on anti-human IgG sensor, 100 nM antigen

| Binder | Kd [nM] |
| --- | --- |
| B1 | 3.03 |
| B2 | 3.18 |
| B3 | 2.85 |
| B4 | 5.24 |
| B5 | 17.8 |
| B6 | 2.94 |
| B7 | 1.93 |
| B8 | 4.93 |
| B9 | 4.24 |
| B10 | 3.49 |
| B11 | 2.6 |
| B12 | 3.39 |
| B13 | 2.94 |
| B14 | 3.09 |

target: RSV postfusion F (postF), F ΔFP (Respiratory syncytial virus, UniProt P03420 26-513); experiment: BLI, IgG on anti-human IgG sensor, 100 nM antigen

| Binder | Kd [nM] |
| --- | --- |
| B1 | 1.1 |
| B2 | 0.55 |
| B3 | 0.455 |
| B4 | 1.21 |
| B5 | 29.2 |
| B6 | 0.825 |
| B7 | 0.285 |
| B8 | 0.755 |
| B9 | 0.709 |
| B10 | 0.49 |
| B11 | 0.891 |
| B12 | 1.03 |
| B13 | 0.955 |
| B14 | 0.611 |

target: T1, RSV postfusion F (postF), subtype A (respiratory syncytial virus, subtype A, UniProt P03420 26-513); experiment: BLI, IgG
T1 construct: also called F ΔFP; Postfusion subtype A

| Binder | Kd [nM] |
| --- | --- |
| B15 | 0.452 |

target: RSV prefusion F (preF), subtype B (respiratory syncytial virus, subtype B); experiment: BLI, IgG

| Binder | Kd [nM] |
| --- | --- |
| B16 | 3.09 |
| B15 | 7.07 |
| B17 | 0.223 |
| B18 | 2.72 |

target: T2, RSV postfusion F (postF), subtype B (respiratory syncytial virus, subtype B); experiment: BLI, IgG
T2 construct: also called F ΔFP; Postfusion subtype B

| Binder | Kd [nM] |
| --- | --- |
| B16 | 0.609 |
| B15 | 4.81 |
| B17 | 63.4 |
| B18 | 0.399 |
